± gives the uncertainty stated by the source.
Experiment: self-splicing fitness, log relative to wild type (ln ratio); higher = more splicing; Tetrahymena group I intron in knt gene, E. coli kanamycin selection, DiMSum; sequences stand for … in CUCUCU…GGAGGGAAAAGUUAUCAGGCAUGCACCUGGUAGCUAGUCUUUAAACCAAUAGAUUGCAUCGGUUUAAAAGGCAAGACCGUCAAAUUGCGGGAAAGGGGUCAACAGCCGUUCAGUACCAAGUCUCAGGGGAAACUUUGAGAUGGCCUUGCAAAGGGUAUGGUAAUAAGCUGACGGACAUGGUCCUAACCACGCAGCCAAGUCCUAAGUCAACAGAUCUUCUGUUGAUAUGGAUGCAGUUCACAGACUAAAUGUCGGUCGGGGAAGAUGUAUUCUUCUCAUAAGAUAUAGUCGGACCUCUCCUUAAUGGGAGCUAGCGGAUGAAGUGAUGCAACACUGGAGCCGCUGGGAACUAAUUUGUAUGCGAAAGUAUAUUGAUUAGUUUUGGAGUACUCGUGGUCG
How it was run: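 Pooled colonies went to amplicon sequencing on an Illumina HiSeq 2500 after six replicate transformations. The plates were LB agar with 100 μg/mL carbenicillin, 50 μM IPTG and 0.2% rhamnose, with or without 25 μg/mL kanamycin, incubated overnight at 37°C or 30°C. The E. coli BL21(DE3) library had all eight P1ex-region intron nucleotides randomised, the intron placed in the knt kanamycin-resistance gene on pET-22b(+). DiMSum fitness is the error-weighted combination of replicate fold changes, kanamycin against none, normalised to wild type.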

| Sequence | self-splicing fitness (ln) (30 °C) | self-splicing fitness (ln) (37 °C) |
| --- | --- | --- |
| CAGCAGCAAUAUUACGACAG | -0.416 ± 0.073 | 0.533 ± 0.1 |
| ACAAAGCAAUAUUACGCGUC | -4.08 ± 0.31 | -2.09 ± 0.22 |
| UAUCAGCAAUAUUACGUGGC | -4.28 ± 0.36 | -2.41 ± 0.27 |
| ACGUAGCAAUAUUACGGAGC | -3.42 ± 0.22 | -2.39 ± 0.26 |
| UUUUAGCAAUAUUACGGCCA | -1.57 ± 0.19 | -0.0772 ± 0.19 |
| GUACAGCAAUAUUACGCAGC | -2.41 ± 0.17 | -2.33 ± 0.23 |
| GUGGAGCAAUAUUACGGCAU | -2.46 ± 0.13 | -2.62 ± 0.17 |
| CCCCAGCAAUAUUACGAGAU | -3.78 ± 0.17 | -2.3 ± 0.2 |
| CUAUAGCAAUAUUACGUCGU |  | -2.24 ± 0.34 |
| CGGUAGCAAUAUUACGGUCU | -0.673 ± 0.068 | -0.251 ± 0.093 |
| ACCAAGCAAUAUUACGUGCG | -1.03 ± 0.052 | -0.972 ± 0.069 |
| CCCUAGCAAUAUUACGCUCU | -4.04 ± 0.28 | -1.45 ± 0.2 |
| AUGGAGCAAUAUUACGAAUU | -3.14 ± 0.47 | -1.14 ± 0.25 |
| CAAAAGCAAUAUUACGUGGA | -3.4 ± 0.14 | -2 ± 0.096 |
| UUUUAGCAAUAUUACGCAUC | -3.19 ± 0.31 | -2.15 ± 0.23 |
| GUCUAGCAAUAUUACGCAAG |  | -1.66 ± 0.38 |
| UACCAGCAAUAUUACGGUUU | -0.896 ± 0.056 | -0.463 ± 0.065 |
| ACCUAGCAAUAUUACGAUAG | -3.99 ± 0.35 | -2.49 ± 0.41 |
| CUUUAGCAAUAUUACGCUCG | -1.68 ± 0.15 | -0.602 ± 0.18 |
| ACUAAGCAAUAUUACGCAAU | -2.04 ± 0.076 | -1.65 ± 0.086 |
| AUCUAGCAAUAUUACGAAUG | -2.37 ± 0.18 | -0.667 ± 0.19 |
| GGAUAGCAAUAUUACGUACG | -0.84 ± 0.21 | -0.97 ± 0.25 |
| GUGUAGCAAUAUUACGCAAU | -2.06 ± 0.22 | -1.26 ± 0.18 |
| UAUCAGCAAUAUUACGCAGU | -2.62 ± 0.13 | -0.577 ± 0.11 |

| Sequence | self-splicing fitness (ln) (30 °C) | self-splicing fitness (ln) (37 °C) |
| --- | --- | --- |
| UGUCAGCAAUAUUACGGCAA | -0.754 ± 0.075 | -0.0955 ± 0.098 |
| CUGAAGCAAUAUUACGUUUU | -3.46 ± 0.2 | -3.22 ± 0.17 |
| GCUAAGCAAUAUUACGUACC | -0.573 ± 0.11 | 0.246 ± 0.17 |
| CAAGAGCAAUAUUACGUGGC | -3.77 ± 0.2 | -3.41 ± 0.28 |
| GGUAAGCAAUAUUACGUUAU | -2.4 ± 0.17 | -2.3 ± 0.24 |
| CACAAGCAAUAUUACGAUAG | -0.655 ± 0.046 | 0.242 ± 0.062 |
| GUACAGCAAUAUUACGAGCU | -2.18 ± 0.15 | -1.51 ± 0.15 |
| GGUCAGCAAUAUUACGCCGG | -2.68 ± 0.27 | -2.79 ± 0.3 |
| CAUAAGCAAUAUUACGCGUU | -3.3 ± 0.15 | -1.55 ± 0.13 |
| AGAUAGCAAUAUUACGGGCC | -1.68 ± 0.19 | -2.68 ± 0.36 |
| CAAGAGCAAUAUUACGCGCG | -1.47 ± 0.093 | -0.891 ± 0.13 |
| CUAAAGCAAUAUUACGACUA | -2.79 ± 0.21 | -1.78 ± 0.17 |
| ACUGAGCAAUAUUACGCCCA | -2.64 ± 0.43 | -2.15 ± 0.28 |
| UAUCAGCAAUAUUACGUCAG | -1.42 ± 0.093 | -0.143 ± 0.11 |
| CCGUAGCAAUAUUACGCGUA | -3.69 ± 0.3 | -2.06 ± 0.31 |
| GCGGAGCAAUAUUACGAACA | -2.71 ± 0.45 | -2.78 ± 0.43 |
| UGGUAGCAAUAUUACGAGGA | -2.9 ± 0.26 | -2.09 ± 0.32 |
| AACUAGCAAUAUUACGUGCA | -0.72 ± 0.054 | -0.578 ± 0.065 |
| GCACAGCAAUAUUACGCUGG | -3.29 ± 0.18 | -1.92 ± 0.15 |
| UAGUAGCAAUAUUACGGCGA | -1.17 ± 0.17 | -0.54 ± 0.17 |
| ACACAGCAAUAUUACGAGUG | -1.43 ± 0.041 | -0.923 ± 0.057 |
| UGGCAGCAAUAUUACGUAAU | -2.04 ± 0.082 | -1.05 ± 0.11 |
| ACACAGCAAUAUUACGAUCU | -0.658 ± 0.053 | 0.14 ± 0.082 |
| UGCUAGCAAUAUUACGUACU | -0.707 ± 0.075 | -0.893 ± 0.089 |

Reference: the supplement of paper PMC7877785
